The results in this text go back to patent US20190135915A1 (SYNTIMMUNE, published 2019).

Residue numbers refer to the chain shown, from its start. In names and notes the source's numbering stands.

Assay [1] deals with T1, FcRn (analyte in the Biacore T200 study) (human, UniProt P55899 24-297; P61769 21-119, limits assumed).
T1 construct: also called human FcRn
The experiment in a line: SPR Biacore T200, antibody amine-coupled to CM5, FcRn analyte, 1:1 model; pH not stated. As for the experimental part: (§1) Antibodies were immobilized onto a Series S CM5 sensor chip surface using standard amine coupling chemistry and analyte (FcRn) flowed over the surface. A 2-fold dilution range was selected from 50-0.01 nM FcRn. The association phase of FcRn analyte was monitored for 450 seconds, and dissociation was initially measured for either 250 or 2500 seconds, at 40 μl/min Fc1 was a reference channel and was subtracted from other flow cells to correct for non-specific binding. […] Kinetic values are based on a 1:1 binding model (Table 5).
A general note: In SPR one partner is held on a chip, and binding of the other changes the refractive index at the surface.

Assay [2] deals with T2, monomeric His-tagged hFcRn (human, UniProt P55899 24-297; P61769 21-119, limits assumed).
T2 construct: also called human FcRn; not shown: His tag
The experiment in a line: SPR Biacore 3000, antibody amine-coupled to CM5, His-tagged hFcRn analyte, pH 6.0, 25 C, 1:1 Langmuir. The procedure:
(§2) The coupling was performed by injecting 2 μg/ml of each protein into 10 mM sodium acetate, pH 4.5 (GE Healthcare), using the amine coupling kit (GE Healthcare). HBS-P buffer pH 7.4 (0.01 M HEPES, 0.15 M NaCl, 0.005% surfactant P20) or phosphate buffer pH 6.0 (67 mM phosphate buffer, 0.15 M NaCl, 0.005% Tween 20) were used as running buffer and dilution buffer. […] All SPR experiments were conducted at 25° C. with a flow rate of 40 μl/min Binding data were zero-adjusted, and the reference cell value subtracted. The Langmuir 1:1 ligand binding model provided by the BIAevaluation software (version 4.1) was used to determine the binding kinetics. The closeness of the fit is described by the statistical value χ².

Assay [3] deals with T3, recombinant human FcRn (Sino Biological Inc. Cat. No. CT009-H08H) (human, UniProt P55899 24-297; P61769 21-119).
T3 construct: also called immobilized FcRn
The experiment in a line: competition ELISA, pH 6.0: test IgG4 (stable NS0) titrated against fixed biotinylated murine parent antibody on recombinant human FcRn; streptavidin-HRP/TMB, OD450 [bottom panel]. The procedure:
(§3) The IgG4 antibodies were tested for antigen binding in a competition ELISA at pH 6.0 and pH 7.4. A Nunc Immuno MaxiSorp 96 well flat bottom microtitre plate (Fisher, cat. no. DIS-971-030J) was pre-coated with 1 μg/ml of an FcRn antibody specific for an IgG-binding epitope distinct from the albumin-binding region overnight at pH 7.4. The following day, 1 μg/ml recombinant human FcRn (Sino Biological Inc. cat. no. CT009-H08H) diluted in PBS pH 7.4 was added to the wells and incubated for 1 hour at 37° C. After washing the plates 3× with PBST pH 7.4, the plates were blocked with PBSM pH 7.4 for 1 hour at 37° C. From this point onwards, all wash and incubation steps were performed at the chosen assay pH (pH 6.0 or 7.4). […] The reaction was stopped with 3 M HCl, absorbance read at 450 nm on a Dynex Technologies MRX TC II plate reader and the binding curves plotted.
(§4) NS0 produced humanized affinity matured IgGs were used in all assays other than G50_C10/Vκ3), which was purified from transiently expressing HEK cells.
For orientation: ELISA stands for enzyme-linked immunosorbent assay.

Assay [4] has as its target T3, recombinant human FcRn (Sino Biological …). The experiment in a line: competition ELISA, pH 7.4: test IgG4 (stable NS0) titrated against fixed biotinylated murine parent antibody on recombinant human FcRn; streptavidin-HRP/TMB, OD450 [bottom panel]. As for the experimental part: as §3, §4
Assay [5] concerns the target T2, monomeric His-tagged hFcRn. In words: SPR Biacore 3000, antibody amine-coupled to CM5, His-tagged hFcRn analyte, pH 7.4, 25 C, 1:1 Langmuir. As for the experimental part:
as §2
The kinetic rate constants were obtained using a simple first-order (1:1) Langmuir bimolecular interaction model. The kinetic values represent the average of duplicates. The χ² (chi-square) values represent the fit to the binding model used.

The target of assay [6] is T1, FcRn (analyte in the Biacore T200 study). In words: SPR Biacore T200, antibody amine-coupled to CM5, FcRn analyte, 1:1 model; chip with the three best variants (repeat run, dissociation 4500 s per paragraph 156); pH not stated. The procedure: as §1
Assay [7] deals with T3, recombinant human FcRn (Sino Biological …). In words: competition ELISA, pH 6.0: test IgG4 (stable NS0) titrated against fixed biotinylated murine parent antibody on recombinant human FcRn; streptavidin-HRP/TMB, OD450 [middle panel]. The procedure:
as §3, §4

Assay [8] has the same target. The experiment in a line: competition ELISA, pH 7.4: test IgG4 (stable NS0) titrated against fixed biotinylated murine parent antibody on recombinant human FcRn; streptavidin-HRP/TMB, OD450 [middle panel]. The procedure:
as §3, §4

The target is the same in assay [9]. The experiment in a line: competition ELISA, pH 7.4: test IgG4 (transient HEK) titrated against fixed biotinylated murine parent antibody on recombinant human FcRn; streptavidin-HRP/TMB, OD450. As for the experimental part:
as §3

Assay [10] has the same target. In words: competition ELISA, pH 6.0: test IgG4 (stable NS0) titrated against fixed biotinylated murine parent antibody on recombinant human FcRn; streptavidin-HRP/TMB, OD450 [top panel]. The procedure:
as §3, §4

Assay [11] has the same target. The experiment in a line: competition ELISA, pH 7.4: test IgG4 (stable NS0) titrated against fixed biotinylated murine parent antibody on recombinant human FcRn; streptavidin-HRP/TMB, OD450 [top panel]. As for the experimental part:
as §3, §4

Assay [12] has as its target T1, FcRn (analyte in the Biacore T200 study). In words: SPR Biacore T200, antibody amine-coupled to CM5, FcRn analyte, 1:1 model; chip with the three best variants (repeat run, dissociation 4500 s per paragraph 156); pH not stated; repeat run of the three best variants, dissociation 4500 s. The procedure: as §1
The target is the same in assay [13]. In words: SPR Biacore T200; KD of humanized parent VH1/Vκ1 divided by KD of the test antibody on the same chip. As for the experimental part: as §1
The target of assay [14] is T3, recombinant human FcRn (Sino Biological …). The experiment in a line: competition ELISA, pH 6.0; competitor biotinylated parent murine antibody; captured recombinant human FcRn; HEK-expressed IgG4. The procedure: as §3
Assay [15] shares this target. The experiment in a line: competition ELISA, pH 7.4; competitor biotinylated parent murine antibody; captured recombinant human FcRn; HEK-expressed IgG4. The procedure:
as §3

For assay [16] the target is unchanged. The experiment in a line: competition ELISA, pH 6.0; competitor biotinylated parent murine antibody; captured recombinant human FcRn; NS0-expressed IgG4. The procedure: as §3, §4
For assay [17] the target is unchanged. In words: competition ELISA, pH 7.4; competitor biotinylated parent murine antibody; captured recombinant human FcRn; NS0-expressed IgG4. As for the experimental part: as §3, §4

T1 sequence (P55899 24-297 limits assumed, chain 1 of 2): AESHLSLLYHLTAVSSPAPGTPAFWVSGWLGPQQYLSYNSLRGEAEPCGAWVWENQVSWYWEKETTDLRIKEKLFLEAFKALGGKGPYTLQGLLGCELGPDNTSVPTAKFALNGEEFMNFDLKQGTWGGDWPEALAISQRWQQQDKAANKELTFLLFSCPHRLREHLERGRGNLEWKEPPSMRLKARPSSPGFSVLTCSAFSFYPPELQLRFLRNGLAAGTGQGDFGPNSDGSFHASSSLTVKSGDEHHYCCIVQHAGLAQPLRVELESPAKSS
T1 sequence (P61769 21-119 limits assumed, chain 2 of 2): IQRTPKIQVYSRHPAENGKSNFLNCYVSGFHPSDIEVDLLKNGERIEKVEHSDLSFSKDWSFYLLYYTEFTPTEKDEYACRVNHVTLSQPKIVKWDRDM
T2 sequence (P55899 24-297 limits assumed, chain 1 of 2): as the sequence (P55899 24-297 limits assumed, chain 1 of 2) above
T2 sequence (P61769 21-119 limits assumed, chain 2 of 2): as the sequence (P61769 21-119 limits assumed, chain 2 of 2) above
T3 sequence (P55899 24-297 limits assumed, chain 1 of 2): as the sequence (P55899 24-297 limits assumed, chain 1 of 2) above
T3 sequence (P61769 21-119 limits assumed, chain 2 of 2): as the sequence (P61769 21-119 limits assumed, chain 2 of 2) above

B1: G49_H9.3/Vκ3 (antibody, V domains shown)
VH: EVQLVESGGGLVKPGGSLKLSCAASGFTFSDYGMHWVRQAPGKGLEWVAYISSGSSTIYYADTVKGRFTISRDNAKNTLYLQMNSLRAEDTAMYYCARFDSLSTVGDYWGQGTSVTVSS
VL: DIVMTQSPDSLSASVGDRVTITCKASQSVSNDVAWYQQKPGQPPKLLIYYASNRYTGVPDRFSGSGYGTDFTLTISSLQAEDVAVYFCQQDYSSLTFGQGTKLEIK
notes: Bivalent IgG4 with S241P, human kappa; also called SYNT002-21; G49_H9.3 VH1
The term Kd denotes the concentration at which binding is half-saturated. The low end stands for higher affinity, the high end for lower affinity. Turning to B1, the Kd in assay [1] was determined as 1.11 nM; in assay [2], 1.7 nM. In addition, the “IC50 (read off the curve)” value in assay [3] was ~0.2 µg/mL; in assay [4], ~0.5 µg/mL.

B2: G15_C3/Vκ3 (antibody, V domains shown)
VH: B1 VH with F99G, D100E, L102T, S103T
VL: B1 VL
notes: Bivalent IgG4 with S241P, human kappa; also called SYNT002-3; G15_C3 VH1
Consider B2, for which the Kd in assay [2] was 0.7 nM; in assay [5], 7.8 nM; in [6], 0.39 nM. Moreover, the “IC50 (read off the curve)” value is ~0.3 µg/mL in assay [7] and ~0.5 µg/mL in assay [8].

B3: G47_B10/Vκ3 (antibody, V domains shown)
VH: B1 VH with F99A, D100E, L102T, S103T
VL: B1 VL
notes: Bivalent IgG4 with S241P, human kappa; also called SYNT002-8; G47_B10VH1_Vκ3
Turning to B3, the dissociation constant Kd in [1] was 0.33 nM; in [2] it was 0.6 nM; in [5], 4 nM; in assay [12], 0.24 nM. Further, the “IC50 (read off the curve)” value in assay [9] was ~0.2 µg/mL; in [10], ~0.3 µg/mL; in assay [11], ~0.5 µg/mL.

B4: G52_G9/Vκ3 (antibody, V domains shown)
VH: B1 VH with S101T, L102P
VL: B1 VL
notes: Bivalent IgG4 with S241P, human kappa; also called G52_G9 VH1
In assay [1], B4 registered an equilibrium dissociation constant (Kd) of 1.99 nM.

B5: G47_H6/Vκ3 (antibody, IgG4, V domains shown)
VH: B1 VH with D100S
VL: B1 VL
notes: IgG4 with S241P, human kappa; also called G47_H6 VH1
The term koff denotes the rate constant with which the complex falls apart. Read a high koff as a short-lived complex. For orientation: kon means the rate constant with which the complex forms. High values mean faster complex formation, low ones slower complex formation. As to B5, the Kd in assay [1] was 2.09 nM. The koff in assay [1] stood at 0.000814 s⁻¹. The molecule also came in with a kon in assay [1] of 389000 M⁻¹ s⁻¹. In assay [13], the “Fold difference in KD” value came to 1.2 fold. Besides, the “Average relative IC50 (relative to humanized parent)” value in assay [14] amounted to 0.8; in assay [15], 0.7; in assay [16], 0.84; in assay [17], 0.89.

B6: G49_H9.5/Vκ3 (antibody, V domains shown)
VH: B1 VH with F99L, D100E, S101A, L102V, T104A
VL: B1 VL
notes: Bivalent IgG4 with S241P, human kappa; also called G49_H9.5 VH1
For the molecule B6, in assay [1], binding was characterised by a dissociation constant (Kd) of 1.21 nM. For the same molecule, the “Average relative IC50 (relative to humanized parent)” value came to 0.8 in [14], 0.8 in assay [16] and 0.87 in assay [17].

B7: G54_D11/Vκ3 (antibody, V domains shown)
VH: B1 VH with S101T, L102P, S103A
VL: B1 VL
notes: Bivalent IgG4 with S241P, human kappa; also called SYNT002-17; G54_D11 VH1
B7: the Kd is 3.71 nM in [1] and 34 nM in assay [5]. The “IC50 (read off the curve)” value in assay [3] was ~0.3 µg/mL.
